Source: IntAct's records for PubMed 20924357

B1: Cryptic beta-glucoside bgl operon antiterminator (Escherichia coli (strain K12)), P11989 (parent)
chain: MNMQITKILNNNVVVVIDDQQREKVVMGRGIGFQKRAGERINSSGIEKEYALSSHELNGRLSELLSHIPLEVMATCDRIISLAQERLGKLQDSIYISLTDHCQFAIKRFQQNVLLPNPLLWDIQRLYPKEFQLGEEALTIIDKRLGVQLPKDEVGFIAMHLVSAQMSGNMEDVAGVTQLMREMLQLIKFQFSLNYQEESLSYQRLVTHLKFLSWRILEHASINDSDESLQQAVKQNYPQAWQCAERIAIFIGLQYQRKISPAEIMFLAINIERVRKEH

Variants of: B1
Details: with pthp_ecoli ptsH

Variant	effect of a mutation on the interaction
D100N	increasing interaction

Variants of: B1
Details: with pthp_ecoli ptsH
Remark: another data set of the same source

Variant	effect of a mutation on the interaction
H160Y	increasing interaction

Variants of: B1
Details: with pthp_ecoli ptsH
Remark: another data set of the same source

Variant	effect of a mutation on the interaction
H208R	increasing interaction

Variants of: B1
Details: with pt1_ecoli ptsI

Variant	effect of a mutation on the interaction
H208R	increasing interaction

Variants of: B1
Details: with pt1_ecoli ptsI
Remark: another data set of the same source

Variant	effect of a mutation on the interaction
H208R	decreasing interaction
